# According to paper PMC3320862, “Structural and Functional Analysis of the Symmetrical Type I Restriction Endonuclease R.EcoR124INT” (PLOS One, 2012):
# T1: M.EcoR124INT methyltransferase (UniProt P10484 1-520; P10485 1-215)
# T1 construct: HsdM (modification subunit, M) of the Type I restriction-modification system EcoR124I; SNT: residues 1-215 of the parent specificity subunit HsdS (S) of EcoR124I, holding the N-terminal target recognition domain and the central conserved region; Complex formed beforehand (M and SNT), to which HsdR was added; M2 stoichiometry is printed for Type I MTases in general (M2S); 'two modified SNT …
# T1 sequence (looked up) 1: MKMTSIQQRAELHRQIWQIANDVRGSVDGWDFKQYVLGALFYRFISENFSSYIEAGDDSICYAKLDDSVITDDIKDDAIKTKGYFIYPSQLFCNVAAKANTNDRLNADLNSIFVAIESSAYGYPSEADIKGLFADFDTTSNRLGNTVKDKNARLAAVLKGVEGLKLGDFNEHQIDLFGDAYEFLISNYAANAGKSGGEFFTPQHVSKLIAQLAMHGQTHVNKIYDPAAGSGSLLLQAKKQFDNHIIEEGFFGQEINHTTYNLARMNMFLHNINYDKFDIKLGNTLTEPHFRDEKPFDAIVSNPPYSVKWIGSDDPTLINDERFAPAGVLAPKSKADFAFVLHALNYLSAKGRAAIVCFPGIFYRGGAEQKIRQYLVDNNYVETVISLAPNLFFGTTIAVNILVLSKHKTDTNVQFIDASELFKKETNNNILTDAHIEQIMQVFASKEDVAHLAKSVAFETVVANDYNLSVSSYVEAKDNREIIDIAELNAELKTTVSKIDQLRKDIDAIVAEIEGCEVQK
# T1 sequence (looked up) 2: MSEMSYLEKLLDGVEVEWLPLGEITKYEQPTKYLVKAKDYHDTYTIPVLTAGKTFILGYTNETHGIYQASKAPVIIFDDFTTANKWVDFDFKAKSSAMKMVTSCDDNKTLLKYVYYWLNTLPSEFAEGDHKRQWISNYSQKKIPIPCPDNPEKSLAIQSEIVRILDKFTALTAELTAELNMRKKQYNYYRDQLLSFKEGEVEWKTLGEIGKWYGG
# B1: HsdR from EcoR124I (enzyme, UniProt P10486 1-1038, looked up)
# chain: MTHQTHTIAESNNFIVLDKYIKAEPTGDSYQSESDLERELIQDLRNQGYEFISVKSQSAMLANVREQLQNLNGVVFNDSEWRRFTEQYLDNPSDGILDKTRKIHIDYICDFIFDDERLENIYLIDKKNLMRNKVQIIQQFEQAGSHANRYDVTILVNGLPLVQIELKKRGVAIREAFNQIHRYSKESFNSENSLFKYLQLFVISNGTDTRYFANTTKRDKNSFDFTMNWAKSDNTLIKDLKDFTATCFQKHTLLNVLVNYSVFDSSQTLLVMRPYQIAATERILWKIKSSFTAKNWSKPESGGYIWHTTGSGKTLTSFKAARLATELDFIDKVFFVVDRKDLDYQTMKEYQRFSPDSVNGSENTAGLKRNLDKDDNKIIVTTIQKLNNLMKAESDLPVYNQQVVFIFDECHRSQFGEAQKNLKKKFKRYYQFGFTGTPIFPENALGSETTASVFGRELHSYVITDAIRDEKVLKFKVDYNDVRPQFKSLETETDEKKLSAAENQQAFLHPMRIQEITQYILNNFRQKTHRTFPGSKGFNAMLAVSSVDAAKAYYATFKRLQEEAANKSATYKPLRIATIFSFAANEEQNAIGEISDETFDTSAMDSSAKEFLDAAIREYNSHFKTNFSTDSNGFQNYYRDLAQRVKNQDIDLLIVVGMFLTGFDAPTLNTLFVDKNLRYHGLMQAFSRTNRIYDATKTFGNIVTFRDLERSTIDAITLFGDKNTKNVVLEKSYTEYMEGFTDAATGEAKRGFMTVVSELEQRFPDPTSIESEKEKKDFVKLFGEYLRAENILQNYDEFATLKALQQIDLSDPVAVEKFKAEHYVDDEKFAELQTIRLPADRKIQDYRSAYNDIRDWQRREKEAEKKEKSTTDWDDVVFEVDLLKSQEINLDYILGLIFEHNRQNKGKGEMIEEVKRLIRSSLGNRAKEGLVVDFIQQTNLDDLPDKASIIDAFFTFAQREQQREAEALIKEENLNEDAAKRYIRTSLKREYATENGTELNETLPKLSPLNPQYKTKKQAVFQKIVSFIEKFKGVGGKI
# notes: HsdR (restriction / motor subunit) of the Type I restriction-modification system EcoR124I; about 120 kDa as printed; For one SANS sample the same protein was made about 75% deuterated (85% D2O minimal medium); also called R subunit; motor subunit; source: expressed and purified as described previously [24]; deuterated form from BL21 (DE3) with the expression plasmid pBGSR124
# Legend:
# [1] = molecular target: T1, M.EcoR124INT methyltransferase; assay: native gel or EMSA; purified HsdR mixed with MTase at 1:1 and 2:1 molar ratios, then with a 30 bp DNA duplex with the recognition sequence (1:1 enzyme:DNA); 2 uM MTase and DNA, 2 or 4 uM HsdR; 6% non-denaturing polyacrylamide gel, 150 V, 2.5 h, 0.25x TBE; no difference with 10 mM MgCl2; details: both partners purified
# [2] = molecular target: T1, M.EcoR124INT methyltransferase; assay: small-angle neutron scattering; ENase formed at 2:1 molar ratio HsdR:MTase, ca. 3 uM, buffer A; fully protonated complex in H2O, and complex with deuterated HsdR and protonated MTase in 40% D2O (MTase matched out); details: both partners purified
binder,measurement,setting,value
B1,stoichiometry N,[1],2 HsdR per MTase
same,stoichiometry N,[2],2 HsdR per complex
